This assay relates to CN3 yeast strain host cells. Description: Detection of glycosylated cannabinoids and cannabinoid precursors in yeast cells expressing UDP-glycosyl transferase (HPLC-MS). It is filed as cell-based. Details: key to CBDA-glc / OLA-glc / CBGA-glc / CBGA-(glc)2 / CBD-glc / CBD-(glc)2 / OLA-(glc)2 / CBGA-glucuronic acid: (+) represents the lowest detected quantities; (++), (+++), and (++++) signify relative increasing intermediate detected levels; (++), (+++), and (++++) signify relative increasing intermediate detected levels; (++), (+++), and (++++) signify relative increasing intermediate detected levels; (+++++) represents the highest detected quantities; No detectable levels of a glycosylated cannabinoid compound or glycosylated cannabinoid precursor compound are indicated by “n.d.”. The note with it: for production of glycosylated cannabinoids or cannabinoid precursor compounds: pellet or supernatant of recombinant yeast host cells transformed with the UGT; for CBD-glc: 0.5 g/L CBD. The text has this: CN3 yeast strain host cells were transformed as described in Example 1 with one of the following heterologous UGT genes: (1) AtUGT73C6, (2) AtUGT73B4, (3) AtUGT71 D1, (4) AtUGT76E12, (5) AtUGT88A1, (6) HaUGT76G1-L, (7) At5g49690, (8) AtUGT76C4, (9) CsUGT73C6, (10) SrUGT76C1, (11) AtUGT85A3, (12) AtUGT73B1, (13) Atg65550, (14) AtUGT76B1, (15) ATUGT76B1, (16) CsUGT75B2, (17) CsUGT73B4, (18) CsUGT73B1, (19) CsUGT75D1-DN11028, and (20) CsUGT71D1-DN48028. The transformed host cells were pre-grown overnight in yeast extract peptone dextrose (YPD) growth medium and then back diluted into yeast extract peptone galactose (YPG) to OD600 = 0.2. […] Strains were incubated for 20 h at 28° C. rotating at 600 RPM in an EPOCH|2 microplate reader (BioTek). Subsequently, samples were treated with an extraction solvent (80 % Acetonitrile, 20 % Methanol) for 1 hour rotating at 100 RPM. After 20 minutes centrifugation at 12,000 RPM, the supernatant was filtered with a basix 13 mm syringe filter (0.22 µm pore size, Nylon membrane) and transferred to a new tube for further analysis.
Glycosylated cannabinoid compounds and glycosylated cannabinoid precursor compounds were assayed in the supernatant and the cellular pellet employing HPLC and HPLC-MS analysis. HPLC and HPLC-MS analysis was carried out as described below to detect the following glycosylated cannabinoid and cannabinoid precursor compounds: CBGA monoglucoside, CBGA diglucoside, CBDA monoglucoside, CBDA diglucoside, CBGA glucuronic acid, CBD monoglucoside, CBD diglucoside, olivetolic acid monoglucoside (“OliAcid monoglucoside”), olivetolic acid diglucoside (“OliAcid diglucoside”).
HPLC analysis was carried out on an Agilent Technologies 1290 Infinity system, consisting of a vacuum degasser, a binary pump, a thermostated autosampler, a thermostated column compartment and a diode array detector (DAD). A Zorbax Eclipse Plus EC-18 column (2.1 × 50 mm, 1.8 µm, Agilent, USA) was used with a mobile phase composed of 0.1% formic acid in both (A) water with 0.2 % Formic Acid and (B) Acetonitrile with 0.2 % Formic Acid. The chromatographic conditions were set as follows: 0.0-8.0 min linear gradient from 5 to 95% B; 8.1-9.09 min […], 9.10-11.0 min 5 to 95% A for equilibration of the column with the initial conditions. The flow rate was set at 0.4 ml/min. The column temperature was set at 40° C. The sample injection volume was 5 µL. The UV/DAD acquisitions were carried out in the range 190-400 nm and chromatograms were acquired at 265 and 350 nm.
HPLC-MS analysis was carried out to confirm the identity of the HPLC peaks using an Agilent Technologies 6530 Accurate-Mass quadrupole time of flight (QToF) mass spectrometer operating in negative ionization (ESI -) mode. The mass spectrometer experimental parameters were set as follows: the capillary voltage was 3.5 kV, the nebulizer (N2) pressure was 35 psi, the drying gas temperature was 350° C., the drying gas flow was 11 L/min and the skimmer voltage was 65 V. Data were acquired by Agilent Mass Hunter software. The mass spectrometer was operated in full-scan mode in the m/z range 50-1100. Extracted ion chromatograms (EICs) were obtained with an accuracy of 10 ppm m/z from total ion chromatogram (TIC) employing the m/z corresponding to the molecular ions [M-H]^- 385.1504 for Olivetolic Acid Mono-Glucoside, 547.2032 for Olivetolic Acid di-Glucoside, 521.2756 for CBGA Mono-Glucoside, 683.3284 for CBGA Di-Glucoside, 535.2549 for CBGA Glucuronic Acid, 519.2600 for CBDA Mono-Glucoside, 475.2701 for CBD Mono-Glucoside, 637.3302 for CBD Di-Glucoside.
The glycosylated cannabinoid compounds and glycosylated cannabinoid precursor compounds were detected in a relative and semi-quantitative fashion. […]

Where [1] appears, read: 20 h growth, detected in PELLET, 0.05 mM hexanoic acid.
The mark [2] stands for this setting: 20 h growth, detected in SUPERNATANT, 0.2 mM hexanoic acid.

B1: AtUGT76E12: UDP-glycosyl transferase from Arabidopsis thaliana, amino acid sequence SEQ ID NO: 14 (protein, listed as Arabidopsis thaliana)
chain: MQVLGMEEKPARRSVVLVPFPAQGHISPMMQLAKTLHLKGFSITVVQTKFNYFSPSDDFTHDFQFVTIPESLPESDFKNLGPIQFLFKLNKECKVSFKDCLGQLVLQQSNEISCVIYDEFMYFAEAAAKECKLPNIIFSTTSATAFACRSVFDKLYANNVQAPLKETKGQQEELVPEFYPLRYKDFPVSRFASLESIMEVYRNTVDKRTASSVIINTASCLESSSLSFLQQQQLQIPVYPIGPLHMVASAPTSLLEENKSCIEWLNKQKVNSVIYISMGSIALMEINEIMEVASGLAASNQHFLWVIRPGSIPGSEWIESMPEEFSKMVLDRGYIVKWAPQKEVLSHPAVGGFWSHCGWNSTLESIGQGVPMICRPFSGDQKVNARYLECVWKIGIQVEGELDRGVVERAVKRLMVDEEGEEMRKRAFSLKEQLRASVKSGGSSHNSLEEFVHFIRTL
In the case of B1, the “production of glycosylated cannabinoids or cannabinoid precursor compounds” value (shortened to “production”) is “detected”. Under setting [1], the CBGA-glc result was “+++” and the OLA-glc entry is on record as “+++”. For the same molecule, under setting [2], the CBGA-glc entry is “+” and the OLA-glc entry is “+++”.

B2: AtUGT88A1: UDP-glycosyl transferase from Arabidopsis thaliana, amino acid sequence SEQ ID NO: 6 (protein, listed as Arabidopsis thaliana)
chain: MGEEAIVLYPAPPIGHLVSMVELGKTILSKNPSLSIHIILVPPPYQPESTATYISSVSSSFPSITFHHLPAVTPYSSSSTSRHHHESLLLEILCFSNPSVHRTLFSLSRNFNVRAMIIDFFCTAVLDITADFTFPVYFFYTSGAACLAFSFYLPTIDETTPGKNLKDIPTVHIPGVPPMKGSDMPKAVLERDDEVYDVFIMFGKQLSKSSGIIINTFDALENRAIKAITEELCFRNIYPIGPLIVNGRIEDRNDNKAVSCLNWLDSQPEKSVVFLCFGSLGLFSKEQVIEIAVGLEKSGQRFLWVVRNPPELEKTELDLKSLLPEGFLSRTEDKGMVVKSWAPQVPVLNHKAVGGFVTHCGWNSILEAVCAGVPMVAWPLYAEQRFNRVMIVDEIKIAISMNESETGFVSSTEVEKRVQEIIGECPVRERTMAMKNAAELALTETGSSHTALTTLLQSWSPK
As for B2, the “production” value is listed as “detected”. Moreover, under setting [1], the CBGA-glc result is on record as “++” and the OLA-glc entry was “+”.

B3: AtUGT76C4: UDP-glycosyl transferase from Arabidopsis thaliana, amino acid sequence SEQ ID NO: 12 (protein, listed as Arabidopsis thaliana)
chain: MEKSNGLRVILFPLPLQGCINPMIQLAKILHSRGFSITVIHTCFNAPKASSHPLFTFIQIQDGLSETETRTRDVKLLITLLNQNCESPVRECLRKLLQSAKEEKQRISCLINDSGWIFTQHLAKSLNLMRLAFNTYKISFFRSHFVLPQLRREMFLPLQDSEQDDPVEKFPPLRKKDLLRILEADSVQGDSYSDMILEKTKASSGLIFMSCEELDQDSLSQSREDFKVPIFAIGPSHSHFPASSSSLFTPDETCIPWLDRQEDKSVIYVSIGSLVTINETELMEIAWGLSNSDQPFLWVVRVGSVNGTEWIEAIPEYFIKRLNEKGKIVKWAPQQEVLKHRAIGGFLTHNGWNSTVESVCEGVPMICLPFRWDQLLNARFVSDVWMVGIHLEGRIERDEIERAIRRLLLETEGEAIRERIQLLKEKVGRSVKQNGSAYQSLQNLINYISSF
Regarding B3, the “production” value is given as “detected”. Under setting [1], the OLA-glc result was “++”.

B4: AtUGT73B4: UDP-glycosyl transferase from Arabidopsis thaliana, amino acid sequence SEQ ID NO: 10 (protein, listed as Arabidopsis thaliana)
chain: MNREQIHILFFPFMAHGHMIPLLDMAKLFARRGAKSTLLTTPINAKILEKPIEAFKVQNPDLEIGIKILNFPCVELGLPEGCENRDFINSYQKSDSFDLFLKFLFSTKYMKQQLESFIETTKPSALVADMFFPWATESAEKIGVPRLVFHGTSSFALCCSYNMRIHKPHKKVASSSTPFVIPGLPGDIVITEDQANVTNEETPFGKFWKEVRESETSSFGVLVNSFYELESSYADFYRSFVAKKAWHIGPLSLSNRGIAEKAGRGKKANIDEQECLKWLDSKTPGSVVYLSFGSGTGLPNEQLLEIAFGLEGSGQNFIWVVSKNENQVGTGENEDWLPKGFEERNKGKGLIIRGWAPQVLILDHKAIGGFVTHCGWNSTLEGIAAGLPMVTWPMGAEQFYNEKLLTKVLRIGVNVGATELVKKGKLISRAQVEKAVREVIGGEKAEERRLRAKELGEMAKAAVEEGGSSYNDVNKFMEELNGRK
On to B4, for which the “production” value is recorded as “detected”. Also, under setting [1], the “CBGA-(glc)2” value is given as “++”, the CBGA-glc entry is listed as “++++”, the CBGA-glucuronic acid result was “++” and the “OLA-(glc)2” value is reported as “++”. Moreover, the OLA-glc entry under setting [1] is reported as “++++”. Moreover, the CBD-glc entry (20 h growth, detected in PELLET) is listed as “++”. Under setting [2], the CBGA-glc entry is given as “++”, the “OLA-(glc)2” value is on record as “++” and the OLA-glc entry is recorded as “+++++”. Moreover, the CBD-glc entry (20 h growth, detected in SUPERNATANT) is “++”.

B5: HaUGT76G1L: UDP-glycosyl transferase from Helianthus annuus, amino acid sequence SEQ ID NO: 2 (protein, listed as Helianthus annuus)
chain: METQTETTNTVRRNRRIIFFPLPYQGHINPMLQLANLLYSKGFSITILHTNFNKPKTSNYPHFTFKFILDNDPHDGRYSNLPLHGMGAFNRVFVFNEDGADELRHELELLMLASKEDDEHVSCLITDALWHFTQSVADSLSLPRLVLRTSSLFSFLIYASIPLLDDRGYLSLSDNTMALILDGLGYHDLSDNKRLEEQVEEFPMLKVKDIVKMGFKREKDGAGGMIDNMVKQTKTSSGIIWNSFKELEESELETIRRDIPAPSFPIPFAKHFTASSSSLLEHDRSFFPWLDQQPPKSVVYVSFGSVAQVEEKHFMEMVHGLVDSKQLFLWVVRPGFVSGSTWLEPLPDGFPGERGRIVKWAPQQEVLGHEAIGAFWTHGGWNSTLESVCEGVPMICSPFWGDQPLDARYVSDVWKVGVYLENGWKREEITGAIRRVMTDEEMRERARVLKQKLDVSLMKGGSSYESVESLVAYVSSF
As for B5, the “production” value is “detected”. Moreover, under setting [1], the CBDA-glc result is “++” and the OLA-glc result is “++”.

(Values after patent US20230340555A1, “PRODUCTION OF GLYCOSYLATED CANNABINOIDS” (WILLOW BIOSCIENCES, INC., priority 2020, published 2023).)
